Six molecules from patent JP2014150761A (dated 2014) can be followed below.

As a reminder, the IC50 is the concentration that gives 50% inhibition. Read a high IC50 as a need for much substance. Usually Kd stands for a measure of binding affinity in units of concentration. A low value points to tighter binding.

Changes are numbered by the printed parent chain. Names may count otherwise.

Assay [1] concerns the target T1, human beta-NGF (R&D Systems) (human, UniProt P01138 122-241). The assay is described as follows: cell-based or functional assay.
For assay [2], the target named is T2, mouse beta-NGF (R&D Systems) (mouse, UniProt P01139 122-241). As to the kind of experiment: cell-based or functional assay.
In assay [3] the target is T1, human beta-NGF (R&D Systems). The assay is described as follows: competition ELISA: inhibition of biotin-human βNGF binding to immobilised human trkA (Example 3). (In an ELISA, binding on a coated surface is turned into a signal by an enzyme label.)
The target is the same in assay [4]. The assay is described as follows: isothermal titration calorimetry in PBS: 44 μM human βNGF titrated into 1.5 μM Tanezumab, single site binding model. (In general: Isothermal titration calorimetry measures the heat released or taken up as one component is titrated into another.)
The target is the same in assay [5]. As to the kind of experiment: papain Fab tested by Examples 3, 6 and 7.
Assay [6] shares this target. As to the kind of experiment: screening by Examples 3 to 8 (NGF-trkA binding inhibition ELISA, cell assays).
Assay [7] deals with T2, mouse beta-NGF (R&D Systems). The assay is described as follows: competition ELISA with biotin-mouse βNGF on immobilised trkA (Example 4).

B1: Tanezumab (antibody, V domains shown)
VH: QVQLQESGPGLVKPSETLSLTCTVSGFSLIGYDLNWIRQPPGKGLEWIGIIWGDGTTDYNSAVKSRVTISKDTSKNQFSLKLSSVTAADTAVYYCARGGYWYATSYYFDYWGQGTLVTVSS
VL: DIQMTQSPSSLSASVGDRVTITCRASQSISNNLNWYQQKPGKAPKLLIYYTSRFHSGVPSRFSGSGSGTDFTFTISSLQPEDIATYYCQQEHTLPYTFGQGTKLEIKR
With B1, the “IC50, neutralizing activity by the method of Example 6 (Ca2+ rise, HEK293 cells expressing human trkA)” value amounted to 0.17 µg/mL in assay [1] and 0.23 µg/mL in assay [2]. Besides, in assay [3], the IC50 turned out to be 0.41 µg/mL. Also, in assay [4], the Kd amounted to 20.4 nM.

B2: PEGylated 1-15(N52D)-Fab' (Fab, V domains shown)
VH: QVQLQQWGAGLLKPSETLSLTCAVYGGSFSGYYWSWVRQPPGKGLEWIGEIDHSGSTNNNPSLKSRVTISVGTSKNQFSLKLSSVTAADTAVYYCSRDGGPESGMGAFDIWGQGTMVTVSS
VL: not shown
modifications: 40 kDa PEG (SUNBRIGHT GL2-400MA, maleimide) on the C-terminal Cys (EU C226; Cys 230 of SEQ ID NO 10)
In the case of B2, in assay [2], the “IC50, neutralizing activity by the method of Example 6 (Ca2+ rise, HEK293 cells expressing human trkA)” value worked out at 0.069 µg/mL and the “fold stronger neutralizing activity than Tanezumab (method of Example 6)” value is ~3.3 fold.

B3: 1-15(N52D-A)-Fab'-10kPEG (Fab, V domains shown)
VH: B2 VH
VL: not shown
modifications: 10 kDa PEG (SUNBRIGHT GL2-100MA) bound by the procedure of Example 13 (hinge Cys)
For B3, the “IC50, neutralizing activity by the method of Example 6 (final NGF concentration 50 ng/ml)” value in assay [1] stood at 0.028 µg/mL.

B4: Fab fragment of the 1-15 antibody (papain digest) (Fab, V domains shown)
VH: B2 VH with D52N
VL: not shown
notes: also called 1-15 Fab; 1価の抗体フラグメント
Consider B4, for which the binding result in assay [5] is on record as “binds”.

B5: 1-15 antibody (chimeric antibody) (antibody, V domains shown)
VH: B2 VH with D52N
VL: not shown
notes: also called 1−15と命名した抗体(キメラ抗体)
B5: the binding result in assay [6] and in assay [7] was “binds” each time.

B6: 1-15(N52D-A)-Fab'-5kPEG (Fab, V domains shown)
VH: B2 VH
VL: not shown
modifications: 5 kDa PEG (SUNBRIGHT GL2-50MA) bound by the procedure of Example 13 (hinge Cys)
On to B6, for which the “IC50, neutralizing activity by the method of Example 6 (final NGF concentration 50 ng/ml)” value in assay [1] came to 0.03 µg/mL.
